From the nanobody polyreactivity screen of Harvey et al. (2022) come the findings set out here.

The nature of this series: yeast display, Sf9 membrane polyspecificity reagent, FACS + sequencing; frameworks hold sequencing errors. The method in brief: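 A nanobody's polyreactivity label depends on the gate it was sorted from. Yeast display cells were stained with 10% biotinylated, detergent-solubilized Sf9 membrane reagent for 1 hour at 4 °C, enriched on streptavidin microbeads and sorted by FACS. The low and high (top ~1%) gates were set on anti-HA fluorescence for expression and streptavidin fluorescence for reagent binding.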
Regarding “QVQHVESGGGLVQAGGSLRLSCAASGRTFKYYAMGWYRQAPGKERELVAAISSRGGSTYYADSVKGRFTISRDNAKNTVYLQMNSLKPEDTAVYYCAKGTYLSTSTVANDYWGQGTQVTVSS”, the “polyreactivity (PSR sort gate)” value is recorded as “high polyreactivity”.

As for “QVQLVESGGGLVQAGGSLRLSCAASGSTFSPYAMGWYRQAPGKERELVANITISGGSTYYADSVKGRFTISRDNAKNTVYIQMNSLKPEDTAVYYCNADSLIRWLFTVVIFDYWGQGTLVTVSS”, the “polyreactivity (PSR sort gate)” value was “low polyreactivity”.

As to “QVQLVESGGGLVQAGGSLRLSCAASGLTFDSNVMRWYRQAHGKEMELVAAITSSGRTYYADSVKGRFTISRDNAKNTFYLQMNSLKPEDTAVYYCAARNLAYTRKGYYYWGQGTQVTVSS”, the “polyreactivity (PSR sort gate)” value is listed as “high polyreactivity”.

For “QVQLVESGGGLVQAGGSLRLSCAASGSIFFNYAMGWYRKAPGKERELVATITSGGSTYYADSVKGRFTISRDNAKNTVYLQMNSLKPEDTAVYYCAVDEYFAFDYWGQGTQVTVSS”, the “polyreactivity (PSR sort gate)” value was “low polyreactivity”.

Take “QVQLVESCGRLVQAGGSLRISCAASGYTFSYYAMGWYRQAHGKERELVAAINYSGGRTYYADSVKGRFTISRDNAKNNVYLQMNSLKPEDTAVYYCSAYTRNGEYDYWGQGTQVTVSS”: the “polyreactivity (PSR sort gate)” value is “high polyreactivity”.

On to “QVQLVESGGGLVQAGGSLRLSCAASGFTFFSNAMGWYRQAPGKERELVASITNDGSTDADSVKGRFTISRDNAKNTVYLQMNSLKPEDTAVYYCAADFYLWRLPVYAQRYFVRGDYWGQGTQVTVSS”, for which the “polyreactivity (PSR sort gate)” value is reported as “low polyreactivity”.

Take “QVQLVESGGGLGQAGGSLRLSCAASGVSNAMGWYRQAPGKERELVAAISRSGGSTYYADSVKGRFTISRDNAKNTVYLQMNRLKPEDTAVYYCNARPYWIDGSGLFPYDYWGQGSQVTVSS”: the “polyreactivity (PSR sort gate)” value was “high polyreactivity”.

For the sequence “QVQLVESGGGLVQAGGSLRLICAASGSILTHYAMGWYRQAPGKERELVAAITWRGGSTYYADSVKGRFTISRDNAKNTVYLQMNSLKPEDTAVYYCNADYFGGGDYWGQGTQVTVSS”, the “polyreactivity (PSR sort gate)” value is “low polyreactivity”.

Regarding “QVQLVESGGGLVQAGGSLRLSCAASGSTSTSNAMGWYRQAPGKERELVAVISSGGSTYYADSVKGRFTISRDNAKNTVYLQMNSLKPEDTAVYYCSADARIHWFVVRYEYWGQGTQVTVSS”, the “polyreactivity (PSR sort gate)” value is reported as “low polyreactivity”.

“QVQLVESGGGLVQAGGSLRLSCAASGSIFTDYAMGWYRQAPGKERELVAAITSSGGSTYYADSVKGRFTISRDNAKNTVYLQMNSLKPEDTAVYYCDADRITIYDYWGQGTQVTVSS”: the “polyreactivity (PSR sort gate)” value was “low polyreactivity”.

Regarding “QVQLVESGGGLVQAGGSLRLSCAASGYIFSLYGMGWYRQAPGKERELVAAITGSGGGTYADSVKGRFTISRDNAQNTVYLQMKSLKPEDTAVYYCAAGGYRRRFWPIYDYWGQGTQVTVSS”, the “polyreactivity (PSR sort gate)” value is reported as “low polyreactivity”.

As for “QVQLVESGGGLVQAGGSLRLSCAASGFTFQYYAMGWYRQEPGKERELVAAISWGGGSTYYADSVKGRFTISRDNAKNTVYLQMNSLKPEDTAVYYCNAYEYLSAGYDYWGQGTQVTVSS”, the “polyreactivity (PSR sort gate)” value is reported as “low polyreactivity”.

Regarding “QVQLVESGGGLVQAGGSLRLSCSASGYIFDYNAMGWYIQAPGKERELVAAITFRDGSTYADSVKGRFTISRDNAKNTVYLQMNSLKPEDTAVYYCNRRSQVHSHSKHDYWGQGTQVTVSS”, the “polyreactivity (PSR sort gate)” value is reported as “low polyreactivity”.

“QVQLVESGGGLVQAGGSLRLSCAASGRIFAFYALGLYRQAPGKEREFVAAITYSGGNTNYADSVKGRFTISRDNAKNTVYLQMNSLKPEDTAVYYCAADLVYGVYYQEDYWGQGTQVTVSS”: the “polyreactivity (PSR sort gate)” value is “low polyreactivity”.

Consider “QVQLVESGGGLVQAGGSLRLSCAASGRTFKHYAMGWYRQAPGKERELVAGISRGGGITYYADSVKGRFTISRDNAKNTVYLQMNSLKPDDTAVYYCNAYDLYKSGGDYWGQGTQVTVSS”, for which the “polyreactivity (PSR sort gate)” value is “high polyreactivity”.

As to “QVQLVESVGGLVQAGGSLRLSCAASGSTYPYYAMGWYRQAPGKERELVAASTSGGSTNYADSVKGRFTISRDNAKNTVYLQMNSLKPEDTSVYYCATDWSVDLWTWYYYWGQGTQVTVSS”, the “polyreactivity (PSR sort gate)” value was “high polyreactivity”.
